Assay results taken from publication PMC10888690.

Molecular target: SmCAMTA2, split-YFP fusion for BiFC (Solanum melongena (eggplant))

- LUC/REN ratio of the SmCBF2 promoter-LUC reporter in N. benthamiana leaves when SmERF1-62-SK and SmCAMTA2-62-SK were co-present: 2 fold
Substance: SmERF1, construct for BiFC (natural protein)
